# According to patent publication US20250388669A1 (published 2025):
# Target: T1, PD-L1 (human, UniProt Q9NZQ7 19-238, limits assumed)
# T1 construct: The reporter assay used Raji cells expressing human PD-L1
# Experiment: FCM or ELISA
# T1 sequence (Q9NZQ7 19-238 limits assumed): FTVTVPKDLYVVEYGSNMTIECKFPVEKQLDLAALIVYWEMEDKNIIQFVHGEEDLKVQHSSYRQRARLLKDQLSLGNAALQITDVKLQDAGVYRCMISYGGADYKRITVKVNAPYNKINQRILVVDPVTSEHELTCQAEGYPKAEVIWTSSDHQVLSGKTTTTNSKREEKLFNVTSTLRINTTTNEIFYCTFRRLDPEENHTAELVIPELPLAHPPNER
row,binding result,Binder
1,binds,"Ly2438 (bispecific antibody, PD-L1/CD40: two PD-L1 Fabs (Ly076), central CD40 Fv (TM559)) chain 1: QVQLVQSGAEVKKPGASVKVSCKASGYTFTDFWMSWVRQAPGQGLEWMGQIYPNTGTTHSNEKFKGRVTMTRDTSTSTVYMELSSLRSEDTAVYYCARSYHISTTPNWFAYWGQGTLVTVSSASTKGPSVFPLAPSSKSTSGGTAALGCLVKDYFPEPVTVSWNSGALTSGVHTFPAVLQSSGLYSLSSVVTVPSSSLGTQTYICNVNHKPSNTKVDKKVEPKSCGGGGSGGGGSGGGGSGGGGSEVQLVESGGGLVQPGGSLRLSCAASGFTFTNYGLHWVRQAPGKGLEWVSSISPSGGVTYYRDSVKGRFTISRDNSKNTLYLQMNSLRAEDTAVYYCAKPFLGWGGANWIAHWGQGTLVTVSSGGGGSDKTHTCPPCPAPEAAGPSVFLFPPKPKDTLMISRTPEVTCVVVDVSHEDPEVKFNWYVDGVEVHNAKTKPREEQYNSTYRVVSVLTVLHQDWLNGKEYKCKVSNKALPAPIEKTISKAKGQPREPQVYTLPPSREEMTKNQVSLWCLVKGFYPSDIAVEWESNGQPENNYKTTPPVLDSDGSFFLYSKLTVDKSRWQQGNVFSCSVMHEALHNHYTQKSLSLSPG chain 2: QVQLVQSGAEVKKPGASVKVSCKASGYTFTDFWMSWVRQAPGQGLEWMGQIYPNTGTTHSNEKFKGRVTMTRDTSTSTVYMELSSLRSEDTAVYYCARSYHISTTPNWFAYWGQGTLVTVSSASTKGPSVFPLAPSSKSTSGGTAALGCLVKDYFPEPVTVSWNSGALTSGVHTFPAVLQSSGLYSLSSVVTVPSSSLGTQTYICNVNHKPSNTKVDKKVEPKSCGGGGSGGGGSGGGGSGGGGSDIQMTQSPSSLSASVGDRVTITCLASEDISNDLAWYQQKPGKAPKLLIYFVDRLLDGVPSRFSGSGSGTDFTLTISSLQPEDFATYYCQQSYKYPPTFGQGTKLEIKGGGGSDKTHTCPPCPAPEAAGPSVFLFPPKPKDTLMISRTPEVTCVVVDVSHEDPEVKFNWYVDGVEVHNAKTKPREEQYNSTYRVVSVLTVLHQDWLNGKEYKCKVSNKALPAPIEKTISKAKGQPREPQVYTLPPSREEMTKNQVSLSCAVKGFYPSDIAVEWESNGQPENNYKTTPPVLDSDGSFFLVSKLTVDKSRWQQGNVFSCSVMHEALHNRFTQKSLSLSPG light: DIQMTQSPSSLSASVGDRVTITCKASQNVYKKLEWYQQKPGKVPKVLIYHTNILQTGVPSRFSGSGSGTDYTLTISSLQPEDVATYYCYQWNSGPTFGGGTKVEIKRTVAAPSVFIFPPSDEQLKSGTASVVCLLNNFYPREAKVQWKVDNALQSGNSQESVTEQDSKDSTYSLSSTLTLSKADYEKHKVYACEVTHQGLSSPVTKSFNRGEC"
2,binds,"Ly2444 (bispecific antibody, human IgG1, kappa, PD-L1/CD40: two PD-L1 Fabs (Ly076), terminal CD40 Fv (TM559)) chain 1: QVQLVQSGAEVKKPGASVKVSCKASGYTFTDFWMSWVRQAPGQGLEWMGQIYPNTGTTHSNEKFKGRVTMTRDTSTSTVYMELSSLRSEDTAVYYCARSYHISTTPNWFAYWGQGTLVTVSSASTKGPSVFPLAPSSKSTSGGTAALGCLVKDYFPEPVTVSWNSGALTSGVHTFPAVLQSSGLYSLSSVVTVPSSSLGTQTYICNVNHKPSNTKVDKKVEPKSCDKTHTCPPCPAPEAAGPSVFLFPPKPKDTLMISRTPEVTCVVVDVSHEDPEVKFNWYVDGVEVHNAKTKPREEQYNSTYRVVSVLTVLHQDWLNGKEYKCKVSNKALPAPIEKTISKAKGQPREPQVYTLPPSREEMTKNQVSLWCLVKGFYPSDIAVEWESNGQPENNYKTTPPVLDSDGSFFLYSKLTVDKSRWQQGNVFSCSVMHEALHNHYTQKSLSLSPGGGGGSGGGGSGGGGSGGGGSEVQLVESGGGLVQPGGSLRLSCAASGFTFTNYGLHWVRQAPGKGLEWVSSISPSGGVTYYRDSVKGRFTISRDNSKNTLYLQMNSLRAEDTAVYYCAKPFLGWGGANWIAHWGQGTLVTVSS chain 2: QVQLVQSGAEVKKPGASVKVSCKASGYTFTDFWMSWVRQAPGQGLEWMGQIYPNTGTTHSNEKFKGRVTMTRDTSTSTVYMELSSLRSEDTAVYYCARSYHISTTPNWFAYWGQGTLVTVSSASTKGPSVFPLAPSSKSTSGGTAALGCLVKDYFPEPVTVSWNSGALTSGVHTFPAVLQSSGLYSLSSVVTVPSSSLGTQTYICNVNHKPSNTKVDKKVEPKSCDKTHTCPPCPAPEAAGPSVFLFPPKPKDTLMISRTPEVTCVVVDVSHEDPEVKFNWYVDGVEVHNAKTKPREEQYNSTYRVVSVLTVLHQDWLNGKEYKCKVSNKALPAPIEKTISKAKGQPREPQVYTLPPSREEMTKNQVSLSCAVKGFYPSDIAVEWESNGQPENNYKTTPPVLDSDGSFFLVSKLTVDKSRWQQGNVFSCSVMHEALHNRFTQKSLSLSPGGGGGSGGGGSGGGGSGGGGSDIQMTQSPSSLSASVGDRVTITCLASEDISNDLAWYQQKPGKAPKLLIYFVDRLLDGVPSRFSGSGSGTDFTLTISSLQPEDFATYYCQQSYKYPPTFGQGTKLEIK light: DIQMTQSPSSLSASVGDRVTITCKASQNVYKKLEWYQQKPGKVPKVLIYHTNILQTGVPSRFSGSGSGTDYTLTISSLQPEDVATYYCYQWNSGPTFGGGTKVEIKRTVAAPSVFIFPPSDEQLKSGTASVVCLLNNFYPREAKVQWKVDNALQSGNSQESVTEQDSKDSTYSLSSTLTLSKADYEKHKVYACEVTHQGLSSPVTKSFNRGEC"
